± gives the standard deviation of the averaged measurements.
Assay: total protein half-life in vivo (active degradation + dilution); higher = more stable protein
[1] = E. coli NCM3722 delta-clpP delta-lon delta-hslV, growth: N-lim chemostat, doubling time 6 h
[2] = E. coli NCM3722 delta-clpP, growth: N-lim chemostat, doubling time 6 h
[3] = E. coli NCM3722 delta-hslV, growth: N-lim chemostat, doubling time 6 h
[4] = E. coli NCM3722 delta-lon, growth: N-lim chemostat, doubling time 6 h
[5] = E. coli NCM3722 delta-smpB, growth: N-lim chemostat, doubling time 6 h
[6] = wild type E. coli NCM3722, growth: C-lim chemostat, doubling time 3 h
[7] = wild type E. coli NCM3722, growth: C-lim chemostat, doubling time 6 h
[8] = wild type E. coli NCM3722, growth: C-lim chemostat, doubling time 12 h
[9] = wild type E. coli NCM3722, growth: N-lim chemostat, doubling time 6 h
[10] = wild type E. coli NCM3722, growth: N-lim chemostat, doubling time 12 h
[11] = wild type E. coli NCM3722, growth: P-lim chemostat, doubling time 6 h
[12] = wild type E. coli NCM3722, growth: P-lim chemostat, doubling time 12 h

| Sequence | total protein half-life in vivo [1] | total protein half-life in vivo [2] | total protein half-life in vivo [3] | total protein half-life in vivo [4] | total protein half-life in vivo [5] | total protein half-life in vivo [6] | total protein half-life in vivo [7] | total protein half-life in vivo [8] | total protein half-life in vivo [9] | total protein half-life in vivo [10] | total protein half-life in vivo [11] | total protein half-life in vivo [12] |
| --- | --- | --- | --- | --- | --- | --- | --- | --- | --- | --- | --- | --- |
| MIPEKRIIRRIQSGGCAIHCQDCSISQLCIPFTLNEHELDQLDNIIERKKPIQKGQTLFKAGDELKSLYAIRSGTIKSYTITEQGDEQITGFHLAGDLVGFDAIGSGHHPSFAQALETSMVCEIPFETLDDLSGKMPNLRQQMMRLMSGEIKGDQDMILLLSKKNAEERLAAFIYNLSRRFAQRGFSPREFRLTMTRGDIGNYLGLTVETISRLLGRFQKSGMLAVKGKYITIENNDALAQLAGHTRNVA [P0A9E5] | 4.34 ± 0.13 h | 2.99 ± 0.00054 h | 1.2 ± 0.057 h | 1.4 ± 0.028 h | 1.24 ± 0.03 h | 1.23 ± 0.064 h | 1.708 ± 0.0036 h | 2.2 ± 0.069 h | 1.35 ± 0.091 h | 1.68 ± 0.09 h | 1.65 ± 0.039 h | 2.37 ± 0.86 h |
| MIPFNAPPVVGTELDYMQSAMGSGKLCGDGGFTRRCQQWLEQRFGSAKVLLTPSCTASLEMAALLLDIQPGDEVIMPSYTFVSTANAFVLRGAKIVFVDVRPDTMNIDETLIEAAITDKTRVIVPVHYAGVACEMDTIMALAKKHNLFVVEDAAQGVMSTYKGRALGTIGHIGCFSFHETKNYTAGGEGGATLINDKALIERAEIIREKGTNRSQFFRGQVDKYTWRDIGSSYLMSDLQAAYLWAQLEAADRINQQRLALWQNYYDALAPLAKAGRIELPSIPDGCVQNAHMFYIKLRDIDDRSALINFLKEAEIMAVFHYIPLHGCPAGEHFGEFHGEDRYTTKESERLLRLPLFYNLSPVNQRTVIATLLNYFS | 4.72 ± 0.099 h | 4.4 ± 0.0057 h | 4.83 ± 0.25 h | 4.45 h | 4.25 ± 0.17 h | 2.89 ± 0.68 h | 6.6 ± 1 h | 12.5 ± 1.2 h | 5.2 h | 8.13 ± 0.2 h | 6.1125 ± 0.0047 h | 12.33 ± 0.05 h |
| MIPLQHGLILAAILFVLGLTGLVIRRNLLFMLIGLEIMINASALAFVVAGSYWGQTDGQVMYILAISLAAAEASIGLALLLQLHRRRQNLNIDSVSEMRG [P0AFE4] | – | 6.43 h | 7.8 h | > 8 h | 5.17 h | 3.31 h | 7.48 ± 0.41 h | 11.7 h | – | – | 7.16 ± 0.3 h | 13.1 ± 1.5 h |
| MIPQISQAPGVVQLVLNFLQELEQQGFTGDTATSYADRLTMSTDNSIYQLLPDAVVFPRSTADVALIARLAAQERYSSLIFTPRGGGTGTNGQALNQGIIVDMSRHMNRIIEINPEEGWVRVEAGVIKDQLNQYLKPFGYFFAPELSTSNRATLGGMINTDASGQGSLVYGKTSDHVLGVRAVLLGGDILDTQPLPVELAETLGKSNTTIGRIYNTVYQRCRQQRQLIIDNFPKLNRFLTGYDLRHVFNDEMTEFDLTRILTGSEGTLAFITEARLDITRLPKVRRLVNVKYDSFDSALRNAPFMVEARALSVETVDSKVLNLAREDIVWHSVSELITDVPDQEMLGLNIVEFAGDDEALIDERVNALCARLDELIASHQAGVIGWQVCRELAGVERIYAMRKKAVGLLGNAKGAAKPIPFAEDTCVPPEHLADYIAEFRALLDSHGLSYGMFGHVDAGVLHVRPALDMCDPQQEILMKQISDDVVALTAKYGGLLWGEHGKGFRAEYSPAFFGEELFAELRKVKAAFDPHNRLNPGKICPPEGLDAPMMKVDAVKRGTFDRQIPIAVRQQWRGAMECNGNGLCFNFDARSPMCPSMKITQNRIHSPKGRATLVREWLRLLADRGVDPLKLEQELPESGVSLRTLIARTRNSWHANKGEYDFSHEVKEAMSGCLACKACSTQCPIKIDVPEFRSRFLQLYHTRYLRPLRDHLVATVESYAPLMARAPKTFNFFINQPLVRKLSEKHIGMVDLPLLSVPSLQQQMVGHRSANMTLEQLESLNAEQKARTVLVVQDPFTSYYDAQVVADFVRLVEKLGFQPVLLPFSPNGKAQHIKGFLNRFAKTAKKTADFLNRMAKLGMPMVGVDPALVLCYRDEYKLALGEERGEFNVLLANEWLASALESQPVATVSGESWYFFGHCTEVTALPGAPAQWAAIFARFGAKLENVSVGCCGMAGTYGHEAKNHENSLGIYELSWHQAMQRLPRNRCLATGYSCRSQVKRVEGTGVRHPVQALLEIIK | 5.93 ± 0.31 h | 5.92 ± 0.38 h | 6.06 ± 0.28 h | 6.07 ± 0.22 h | 5.58 ± 0.1 h | 2.92 ± 0.41 h | 5.76 ± 0.42 h | 11.1 ± 0.65 h | 5.75 ± 0.096 h | 12.3 ± 0.23 h | 5.88 ± 0.11 h | 11.6 ± 0.3 h |
| MIQKSKIKDLVVFTDENNSKYLNVLNDFLSYNINIIKVFRSIDDTKVMLIDTDYGKLILKVFSPKVKRNERFFKSLLKGDYYERLFEQTQKVRNEGLNTLNDFYLLAERKTLRFVHTYIMIIEYIDGIELCDMPDIDDALKNKIQQSINALHQHGMVSGDPHRGNFIIKNGEVRIIDLSGKRASAQRKAKDRIDLERHYGIKNEIRDLGYYLLVYRKKMRNFMRRLKGKPAR | – | 6.73 ± 0.18 h | 5.7 ± 0.17 h | 6.35 ± 0.15 h | 6.04 ± 0.22 h | 3.31 ± 0.043 h | 5.885 ± 0.011 h | 9.9 ± 1 h | 5.86 ± 0.76 h | 12.09 ± 0.019 h | 5.84 ± 0.34 h | 11.8 ± 0.82 h |
